Source: the RNAGym collection of RNA variant scans (doi:10.7554/elife.80360)

B1: Hammerhead Ribozyme (parent)
chain: ACCGGAUGUGCUUUCCGGUCUGAUGAGUCCGUGAGGACGAAACAG

Variants of: B1
Experiment: self-cleavage, relative activity (ratio to wild type); higher = more cleavage; co-transcriptional

Variant	self-cleavage
C16U A40U	0.301
C16U A41C	0.301
C16U A41G	0.376
C16U A41U	0.264
C16U A42C	0.363
C16U A42G	0.232
C16U A42U	0.273
C16U A44C	0.586
C16U A44G	1.34
C16U A44U	0.845
C16U C20A	0.524
C16U C20G	0.307
C16U C20U	0.651
C16U C29A	0.586
C16U C29G	0.69
C16U C29U	0.988
C16U C30A	0.831
C16U C30G	0.719
C16U C30U	1.02
C16U C38A	0.73
C16U C38G	0.717

Variant	self-cleavage
C16U C38U	1.03
C16U C43A	0.352
C16U C43G	0.352
C16U C43U	0.495
C16U G17A	0.556
C16U G17C	0.551
C16U G17U	0.714
C16U G18A	0.618
C16U G18C	0.529
C16U G18U	0.746
C16U G22A	0.386
C16U G22C	0.318
C16U G22U	0.327
C16U G25A	0.338
C16U G25C	0.265
C16U G25U	0.356
C16U G27A	0.858
C16U G27C	0.783
C16U G27U	0.551
C16U G31A	0.731
C16U G31C	0.844

Variant	self-cleavage
C16U G31U	1.2
C16U G33A	1.14
C16U G33C	1.17
C16U G33U	0.945
C16U G35A	0.911
C16U G35C	0.434
C16U G35U	0.735
C16U G36A	0.636
C16U G36C	0.375
C16U G36U	0.507
C16U G39A	0.327
C16U G39C	0.391
C16U G39U	0.378
C16U G45A	0.89
C16U G45C	0.921
C16U G45U	0.688
C16U U19A	0.344
C16U U19C	0.572
C16U U19G	0.359
C16U U21A	0.698
C16U U21C	0.473

Variant	self-cleavage
C16U U21G	0.588
C16U U24A	0.747
C16U U24C	1.12
C16U U24G	1.16
C16U U28A	0.576
C16U U28C	0.874
C16U U28G	0.798
C16U U32A	1.02
C16U U32C	0.879
C16U U32G	1
G17A	0.768
G17A A23C	0.325
G17A A23G	0.306
G17A A23U	0.315
G17A A26C	0.272
G17A A26G	0.297
G17A A26U	0.447
G17A A34C	0.562
G17A A34G	0.56
G17A A34U	0.613
G17A A37C	0.642
